Source: patent US20120214241

Columns and labels:
SBS 30888 ZFN = test: cell_activity; details: paired with 30886 in G2019S heterozygous patient iPSC; pair more specific for G2019S mutant; value is % clones with monoallelic NHEJ (17% biallelic NHEJ)
SBS 30886 ZFN = test: cell_activity; details: paired with 30888 in G2019S heterozygous patient iPSC; value is % clones with monoallelic NHEJ (17% biallelic NHEJ)

| Sequence | activity (SBS 30888 ZFN) | activity (SBS 30886 ZFN) |
| --- | --- | --- |
| GCAAAGATTGCTGACTACAGCATTGCTC (double strand) [LRRK2 6055G>A (G2019S) target of 30888] | 46% |  |
| TGATGGCAGCATTGGGATACAGTGTGAA (double strand) [LRRK2 target of 27865/27866/27867/27868/30886] |  | 46% |
